Reference: PMC9222203, “A Robust Assay to Monitor Ataxin-3 Amyloid Fibril Assembly” (Cells, 2022)

Assays:
[1] = target: the molecule itself
[2] = target: the molecule itself; assay: switchSENSE; His-tagged protein (500 nM) captured on NTA3-functionalised DNA nanolevers; the same protein as analyte at 3.75-15 uM; PBS pH 7.5, 1 mM TCEP, 37 C; static measurement mode; global mono-exponential fits; self-association

B1: Ataxin-3 Josephin domain (domain or fragment, human, UniProt P54252-2 1-180, looked up)
chain: MESIFHEKQEGSLCAQHCLNNLLQGEYFSPVELSSIAHQLDEEERMRMAEGGVTSEDYRTFLQQPSGNMDDSGFFSIQVISNALKVWGLELILFNSPEYQRLRIDPINERSFICNYKEHWFTVRKLGKQWFNLNSLLTGPELISDTYLALFLAQLQQEGYSIFVVKGDLPDCEADQLLQM
notes: Josephin domain of human ataxin-3 (UniProt P54252-2); A TEV site lies downstream of the His tag; no cleavage described; captured by its His tag in switchSENSE; also called Atx3 JD; JD; source: E. coli BL21(DE3)-SI, purified (Ni2+ IMAC, Sephacryl S-300 SEC); not shown: His6, N-terminal, kept
**Q.** How did the Kd [1] turn out when B1 was run?
**A.** 4.6 µM

**Q.** Does B1 bind [2]?
**A.** binds
